Source: article PMC2752207 (Biomaterials, 2009)
Bridge positions count the residues as written; N and C are the ends. Ends that are not written are not given here. * marks the point of attachment. Acryloyl = C=CC(=O)*

Legend:
[1] = biological target: AlexaFluor555-labeled TNFα (human, UniProt P01375 77-233, AlexaFluor 555 label (protein labeling kit; sites not stated)); assay: FRET or BRET
recombinant human TNF-α = recombinant human TNF-α (human, UniProt P01375 77-233); assay: uptake of the cytokine into peptide-functionalised hydrogels
Sequence of recombinant human TNF-α (P01375 77-233): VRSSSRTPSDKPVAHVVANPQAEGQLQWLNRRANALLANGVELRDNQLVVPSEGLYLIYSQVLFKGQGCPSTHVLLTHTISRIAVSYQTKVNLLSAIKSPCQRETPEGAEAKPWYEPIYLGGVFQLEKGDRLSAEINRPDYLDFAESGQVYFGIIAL

Sequence of AlexaFluor555-labeled TNFα (P01375 77-233): as above

| Binder | binding result [1] | binding result (recombinant human TNF-α) |
| --- | --- | --- |
| KYCWSQYLCY (N-terminus acrylated (acrylic acid); FITC conjugated to the additional lysine; intramolecular disulfide bond) [acryl-(FITC)WP9QY] | binds | – |
| Acryloyl-YCWSQYLCY (disulfide 2-8 (inferred)) [acryl-WP9QY] | – | binds |
